Test system: Escherichia coli TOP10
Assay: shrunken log2 fold change of peptide-encoding DNA abundance (4.5 h post-induction vs induction); higher = less antimicrobial activity (less host growth inhibition)
Conditions: time post-induction: 4.5 h; library: site-saturation at positions 5, 18, 19, 20
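Also: peptides expressed intracellularly from a pBAD plasmid library in pooled LB shake-flask culture, induced with 0.3% L-arabinose, DNA abundance read by NGS, three biological replicates, DESeq2 with apeglm shrinkage.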

Row | Sequence | shrunken log2 fold change
1 | RRIRARPPRLPRPRPRPWIHPRP | -0.264
2 | RRIRDRPPRLPRPRPRPTHCPRP | 0.0452
3 | RRIRIRPPRLPRPRPRPFYWPRP | -0.12
4 | RRIRARPPRLPRPRPRPGPGPRP | 1.08
5 | RRIRTRPPRLPRPRPRPGEVPRP | 0.211
6 | RRIRPRPPRLPRPRPRPCCGPRP | -0.0386
7 | RRIRVRPPRLPRPRPRPHGNPRP | -0.0331
8 | RRIRMRPPRLPRPRPRPEWFPRP | 0.0369
9 | RRIRMRPPRLPRPRPRPFLNPRP | -0.247
10 | RRIRWRPPRLPRPRPRPGKWPRP | 0.202
11 | RRIRPRPPRLPRPRPRPSWDPRP | -0.0474
12 | RRIRDRPPRLPRPRPRPRPIPRP | 0.429
13 | RRIRYRPPRLPRPRPRPEPCPRP | 0.189
14 | RRIRQRPPRLPRPRPRPWMIPRP | 0.0219
15 | RRIRARPPRLPRPRPRPSSDPRP | 0.301
16 | RRIRTRPPRLPRPRPRPFAEPRP | 0.0116
17 | RRIRVRPPRLPRPRPRPMDPPRP | -0.56
18 | RRIRQRPPRLPRPRPRPTYHPRP | -0.184
19 | RRIRKRPPRLPRPRPRPQDIPRP | -0.116
20 | RRIRMRPPRLPRPRPRPHKPPRP | 0.0226
21 | RRIRERPPRLPRPRPRPPTAPRP | 0.0872
22 | RRIRRRPPRLPRPRPRPIGPPRP | 0.147

Row | Sequence | shrunken log2 fold change
23 | RRIRRRPPRLPRPRPRPNMEPRP | 0.0673
24 | RRIRCRPPRLPRPRPRPFDSPRP | -0.00174
25 | RRIRIRPPRLPRPRPRPCMNPRP | -0.307
26 | RRIRHRPPRLPRPRPRPCMYPRP | -0.0819
27 | RRIRYRPPRLPRPRPRPIVDPRP | -0.268
28 | RRIRQRPPRLPRPRPRPHNFPRP | -0.154
29 | RRIRWRPPRLPRPRPRPHWPPRP | 0.248
30 | RRIRGRPPRLPRPRPRPTSDPRP | 0.931
31 | RRIRARPPRLPRPRPRPMGFPRP | -0.154
32 | RRIRKRPPRLPRPRPRPKDLPRP | 0.0142
33 | RRIRFRPPRLPRPRPRPTKKPRP | -0.0226
34 | RRIRTRPPRLPRPRPRPDTFPRP | 0.0276
35 | RRIRLRPPRLPRPRPRPAFMPRP | -0.112
36 | RRIRVRPPRLPRPRPRPTFGPRP | 0.215
37 | RRIRHRPPRLPRPRPRPGHRPRP | -0.0928
38 | RRIRYRPPRLPRPRPRPVGQPRP | -0.106
39 | RRIRRRPPRLPRPRPRPNAHPRP | 0.0582
40 | RRIRPRPPRLPRPRPRPHMWPRP | -0.175
41 | RRIRNRPPRLPRPRPRPRRIPRP | 0.0821
42 | RRIRMRPPRLPRPRPRPEACPRP | 3.9
43 | RRIRIRPPRLPRPRPRPITYPRP | -0.323
44 | RRIRCRPPRLPRPRPRPNWMPRP | -0.805

Row | Sequence | shrunken log2 fold change
45 | RRIRSRPPRLPRPRPRPQSSPRP | -0.192
46 | RRIRHRPPRLPRPRPRPVDQPRP | 0.00586
47 | RRIRQRPPRLPRPRPRPFDIPRP | -0.16
48 | RRIRYRPPRLPRPRPRPVMLPRP | -0.256
49 | RRIRMRPPRLPRPRPRPQYNPRP | -0.934
50 | RRIRARPPRLPRPRPRPKMMPRP | 0.105
51 | RRIRWRPPRLPRPRPRPERMPRP | 0.0689
52 | RRIRVRPPRLPRPRPRPMRSPRP | 0.604
53 | RRIRSRPPRLPRPRPRPNGYPRP | -0.12
54 | RRIRFRPPRLPRPRPRPLYIPRP | -0.63
55 | RRIRSRPPRLPRPRPRPAQTPRP | 0.0615
56 | RRIRPRPPRLPRPRPRPHHRPRP | -0.118
57 | RRIRIRPPRLPRPRPRPDREPRP | 0.00825
58 | RRIRVRPPRLPRPRPRPYRNPRP | -0.0374
59 | RRIRGRPPRLPRPRPRPTYMPRP | 0.0228
60 | RRIRWRPPRLPRPRPRPPHGPRP | 0.428
61 | RRIRIRPPRLPRPRPRPFANPRP | -0.0225
62 | RRIRYRPPRLPRPRPRPEVLPRP | -0.00228
63 | RRIRSRPPRLPRPRPRPTARPRP | 0.44
64 | RRIRNRPPRLPRPRPRPPIVPRP | -0.154
65 | RRIRYRPPRLPRPRPRPFWEPRP | 0.13
66 | RRIRRRPPRLPRPRPRPQSAPRP | 0.123

Row | Sequence | shrunken log2 fold change
67 | RRIRIRPPRLPRPRPRPGSVPRP | -0.258
68 | RRIRDRPPRLPRPRPRPSKNPRP | -0.106
69 | RRIRMRPPRLPRPRPRPGTHPRP | 0.056
70 | RRIRMRPPRLPRPRPRPNVLPRP | 0.359
71 | RRIRARPPRLPRPRPRPDQEPRP | 0.0233
72 | RRIRMRPPRLPRPRPRPIVYPRP | 0.00317
73 | RRIRPRPPRLPRPRPRPQYIPRP | -0.457
74 | RRIRPRPPRLPRPRPRPAHDPRP | 6.73e-05
75 | RRIRIRPPRLPRPRPRPNWMPRP | -0.341
76 | RRIRNRPPRLPRPRPRPKEKPRP | -0.016
77 | RRIRFRPPRLPRPRPRPVSMPRP | 0.174
78 | RRIRPRPPRLPRPRPRPIWKPRP | 0.0296
79 | RRIRHRPPRLPRPRPRPHDPPRP | -0.613
80 | RRIRKRPPRLPRPRPRPILNPRP | -0.158
81 | RRIRRRPPRLPRPRPRPRYFPRP | 0.502
82 | RRIRNRPPRLPRPRPRPINPPRP | -0.796
83 | RRIRIRPPRLPRPRPRPVSEPRP | -0.164
84 | RRIRTRPPRLPRPRPRPRNVPRP | -0.128
85 | RRIRERPPRLPRPRPRPVDAPRP | -0.137
86 | RRIRSRPPRLPRPRPRPDVVPRP | -0.448
87 | RRIRNRPPRLPRPRPRPTHNPRP | -0.114
88 | RRIRMRPPRLPRPRPRPFAVPRP | -0.109

Row | Sequence | shrunken log2 fold change
89 | RRIRERPPRLPRPRPRPHYKPRP | -0.901
90 | RRIRCRPPRLPRPRPRPRPDPRP | 0.276
91 | RRIRSRPPRLPRPRPRPYRPPRP | -0.365
92 | RRIRCRPPRLPRPRPRPYIYPRP | -0.945
93 | RRIRSRPPRLPRPRPRPMQNPRP | 0.22
94 | RRIRKRPPRLPRPRPRPNGLPRP | -0.0579
95 | RRIRERPPRLPRPRPRPNPDPRP | -0.2
96 | RRIRLRPPRLPRPRPRPQAMPRP | 0.00366
97 | RRIRIRPPRLPRPRPRPLMWPRP | -0.115
98 | RRIRPRPPRLPRPRPRPCTKPRP | -0.244
99 | RRIRPRPPRLPRPRPRPGGGPRP | 0.728
100 | RRIRERPPRLPRPRPRPLNYPRP | -0.176
101 | RRIRDRPPRLPRPRPRPVFKPRP | -0.0946
102 | RRIRDRPPRLPRPRPRPPSSPRP | -0.0759
103 | RRIRNRPPRLPRPRPRPTTIPRP | -0.819
104 | RRIRFRPPRLPRPRPRPMCYPRP | -0.416
105 | RRIRCRPPRLPRPRPRPTVSPRP | 0.0953
106 | RRIRTRPPRLPRPRPRPKINPRP | -0.325
107 | RRIRPRPPRLPRPRPRPLRAPRP | 0.86
108 | RRIRVRPPRLPRPRPRPEECPRP | 0.0155
109 | RRIRFRPPRLPRPRPRPSPGPRP | -0.101
